From paper PMC8724117

Target: dual anticoagulant and antiplatelet (APAC) agent (human) (UniProt P02768)
Assay: atomic force microscopy (tapping mode AFM); APAC alone (1:1000 and 1:20,000 dilution of stock) in PBS with 20 mM MgCl2, drop-casted on mica, imaged in air; volume distribution of 340 molecules evaluated with Gwyddion

stoichiometry N: 3
Substance: dual anticoagulant and antiplatelet (APAC) agent (from UniProt P02768 25-609)
